Here are results for 10 molecules from patent US20160280786A1.

For orientation: IC50 means the midpoint of a concentration-inhibition curve.

The chains are these.
B1: 4CTLAPMP11E3 (VHH)
VHH: EVQLVESGGGLVEPGGSLRLSCAASGSISSYNVMGWYRQAPGQQRDLVAHIASNGEIMYADSAKGRFTISRDNAKKTVYLQMNSLKPEDTAVYYCKLWVLGNDYWGQGTQVTVSS
B2: 4CTLAPMP12H2 (VHH)
VHH: EVQLVESGGGLVEPGGSLRLSCAASGSISSYNVMGWYRQAPGQQRDLVAHIASNGEIMYADSAKGRFTISRDNAKKTVYLQMNSLKPEDTAVYYCKLWVLGNDYWGQRTQVTVSS
B3: 4CTLAPMP06C10 (VHH)
VHH: EVQLVESGGGLVQAGGSLRLSCAASGRTFSNYTIAYFRQAPGREREFAAAISPHGTLRSFADSVKDRFTISRDNAKNTVWLQMNSLKLEDTAVYYCAADPSGWGLRQHSENEYPYWGLGTQVTVSS
B4: 4CTLAPMP02A5 (VHH)
VHH: EVQLVESGGGLVQAGGSLRLSCAASGRTNSTTLMGWSRRAPGKEREFVAAISGSGTLTSYADSVKGRFAISRDNAKNTVYLQMNSLKPEDTAIYYCAAGLTSWALIPSRTLTTWGQGTQVTVSS
B5: 4CTLAPMP2G9 (VHH)
VHH: EVQLVKSGGQLVQAGGSLRLSCAATGRTYNSYPLGWFRQAPGKEREFVAAISASGTLRAYADSVKGRFTISRDSAKNTVYLQMNNLKPEDTAVYYCARARSVGWRASHHLSDYDNWGQGTQVTVSS
B6: 4CTLAPMP02F2 (VHH)
VHH: EVQLMESGGGLVQTGGSLRLSCAASGRTFSNYTMGWFRQAPGKDREFVAAISRSGSLKAYADSVKGRFTPSRDNAKKMAYLQMNSLKPEDTAVYYCAAAPVPWGTRPSLFPYDSWGQGTQVTVSS
B7: 4CTLAPMP02G2 (VHH)
VHH: EVQLVESRGGLVQTGGSLRLSCAASGRTFSNYTMGWFRQAPGKDREFVAAISRSGSLKSYADSVKGRFTISRDNAKKMAYLQMNSLKPEDTAVYYCAAAPVPWGTRPSFFTYDSWGQGTQVTVSS
B8: 4CTLAPMP02F4 (VHH)
VHH: EVQLVESGGGLVQTGGSLRLSCAASGRTFSNYTMGWFRQAPGKDREFVAAISRSGALKAYADSVKGRFTPSRDNAKKMAYLQMNSLKPEDTAVYYCAAAPVPWGTRPSFFPYDSWGQGTQVTVSS
B9: 4CTLAPMP03C4 (VHH)
VHH: EVQLVESGGGLVQAGGSLRLSCAASGGTFSFYGMGWFRQAPGKEREFVADIRTSAGRTYYADSVKGRFTISRDNAKNTVYLQMNSLKPEDTAVYYCAAEMSGISGWDYWGQGTQVTVSS
B10: 4CTLAPMP11F1 (VHH)
VHH: EVQLVESGGGLVQAGGSLRLSCAASGGTFSFYGMGWFRQAPGKEQEFVADIRTSAGRTYYADSVKGRFTISRDNAKNTVYLQMNSLKPEDTAVYYCAAEMSGISGWDYWGQGTQVTVSS

The target in this experiment is cynomolgus monkey CTLA4 (human CTLA4 cDNA with S13N, I17T and L105M) on stably transfected CHO-K1 cells (human cDNA mutated to the cynomolgus monkey extracellular domain) (UniProt P16410). In words: FACS direct binding titration on CHO cells with cynomolgus CTLA4 (head prints IC50).
cynomolgus monkey CTLA4 (human CTLA4 cDNA with S13N, I17T and L105M) on stably transfected CHO-K1 cells (human cDNA mutated to the cynomolgus monkey extracellular domain), sequence (P16410 36-223, stated change not applied): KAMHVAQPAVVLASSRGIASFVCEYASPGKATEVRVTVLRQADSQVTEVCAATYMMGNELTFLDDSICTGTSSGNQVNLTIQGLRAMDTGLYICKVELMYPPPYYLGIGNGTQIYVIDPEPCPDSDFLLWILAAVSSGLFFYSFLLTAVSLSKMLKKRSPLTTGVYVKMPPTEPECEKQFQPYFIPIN
Molecule B1 gave a 50% inhibitory concentration (IC50) of 4.5 nM.

In turn, B2 came in with an IC50 of 5.65 nM.

As for B3, the IC50 is 5.47 nM.

For B4, the half-inhibitory concentration (IC50) came to 7.74 nM.

In turn, B5 yielded a 50% inhibitory concentration (IC50) of 2.66 nM.

In turn, B6 returned a concentration for half-maximal inhibition (IC50) of 2.42 nM.

Turning to B7, the half-maximal inhibitory concentration (IC50) came to 2.08 nM.

In turn, B8 showed an IC50 of 2.36 nM.

B9 registered a 50% inhibitory concentration (IC50) of 6.73 nM.

As to B10, the IC50 was determined as 5.51 nM.
